Measurements: publication doi:10.1101/2025.08.03.668247, “The structure of Egalitarian in complex with the K10 mRNA localization signal reveals a modular binding surface required for function”
Substitutions are numbered along the chain they refer to.

What was measured:
Assay in all cases: fluorescence anisotropy; FA: 20 mM HEPES-NaOH pH 7.5, 100 mM NaCl, 10% glycerol, 20 C, 10 nM FAM-RNA; competition: 150 nM Egl512-819 + 10 nM FAM-K10 TLS, same buffer
Settings in all cases: protein: recombinant; tags: N-terminal GST; label: 5'-6-FAM; hairpin with two bulges
K755E = target: T1, K755E (Drosophila melanogaster, UniProt Q9W1K4 512-819, K755E)
T1 sequence: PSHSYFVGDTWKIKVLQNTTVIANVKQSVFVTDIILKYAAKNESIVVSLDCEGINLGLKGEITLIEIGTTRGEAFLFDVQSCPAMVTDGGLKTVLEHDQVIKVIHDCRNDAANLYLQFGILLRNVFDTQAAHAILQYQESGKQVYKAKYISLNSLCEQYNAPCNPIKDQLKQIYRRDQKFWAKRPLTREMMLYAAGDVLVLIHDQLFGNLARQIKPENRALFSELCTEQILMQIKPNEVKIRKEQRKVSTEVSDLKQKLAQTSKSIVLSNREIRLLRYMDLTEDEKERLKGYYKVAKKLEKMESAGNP

R782A = target: T2, R782A (Drosophila melanogaster, UniProt Q9W1K4 512-819, R782A)
T2 sequence: T1 sequence with E244K, R271A

K678E = target: T3, K678E (Drosophila melanogaster, UniProt Q9W1K4 512-819, K678E)
T3 sequence: T1 sequence with K167E, E244K

R788A = target: T4, R788A (Drosophila melanogaster, UniProt Q9W1K4 512-819, R788A)
T4 sequence: T1 sequence with E244K, R277A

R753E = target: T5, R753E (Drosophila melanogaster, UniProt Q9W1K4 512-819, R753E)
T5 sequence: T1 sequence with R242E, E244K

K758E = target: T6, K758E (Drosophila melanogaster, UniProt Q9W1K4 512-819, K758E)
T6 sequence: T1 sequence with E244K, K247E

B1: K10 TLS (FAM) (structured_RNA)
RNA: CUUGAUUGUAUUUUUAAAUUAAUUCUUAAAAACUACAAAUUAAG
B1 was tested, and the Kd (K755E) was 133 ± 2 nM, the Kd (R782A) was 284 ± 13 nM and the Kd (K678E) was 195 ± 9 nM. For the same binder, the Kd (R788A) was 207 ± 43 nM, the Kd (R753E) was 185 ± 9 nM and the Kd (K758E) was 380 ± 65 nM.
